Values quoted from earlier work, collected in patent US20240408179A1, “ORAL DELIVERY OF THERAPEUTIC AGENTS” (GUANGZHOU DAZHOU BIOMEDICINE LTD., priority 2021, published 2024).

Experiments:
[1] = humans, co-formulated with SNAC
[2] = system: T2D patients with high risk of cardiovascular disease events; settings: empagliflozin group versus placebo group

Row | Compound | oral bioavailability (BA %) [1] | relative risk reduction in death from cardiovascular causes [2] [%]
1 | semaglutide | 0.5-1% | 
2 | OC[C@H]1O[C@@H](c2ccc(Cl)c(Cc3ccc(O[C@H]4CCOC4)cc3)c2)[C@H](O)[C@@H](O)[C@@H]1O [empagliflozin] |  | 38
